We go through 14 molecules from patent US11505811B2, “Method for the preparation of 2,4-dihydroxybutyrate” (ADISSEO FRANCE S.A.S., priority 2012, dated 2022).

The labels stand for the following.
B1: Ec-Mdh: (L)-malate dehydrogenase from Escherichia coli, SEQ ID NO: 2 (protein, listed as Escherichia coli)
chain: MKVAVLGAAGGIGQALALLLKTQLPSGSELSLYDIAPVTPGVAVDLSHIPTAVKIKGFSGEDATPALEGADVVLISAGVARKPGMDRSDLFNVNAGIVKNLVQQVAKTCPKACIGIITNPVNTTVAIAAEVLKKAGVYDKNKLFGVTTLDIIRSNTFVAELKGKQPGEVEVPVIGGHSGVTILPLLSQVPGVSFTEQEVADLTKRIQNAGTEVVEAKAGGGSATLSMGQAAARFGLSLVRALQGEQGVVECAYVEGDGQYARFFSQPLLLGKNGVEERKSIGTLSAFEQNALEGMLDTLKKDIALGEEFVNK
B2: R81A M85Q: E. coli malate dehydrogenase mutant, SEQ ID No. 104 (protein, listed as Escherichia coli)
chain: B1 chain with R81A, M85Q
B3: R81A M85Q I12V: E. coli malate dehydrogenase mutant, SEQ ID No. 108 (protein, listed as Escherichia coli)
chain: B1 chain with I12V, R81A, M85Q
B4: R81A G179D: E. coli malate dehydrogenase mutant, SEQ ID No. 112 (protein, listed as Escherichia coli)
chain: B1 chain with R81A, G179D
B5: R81A D86S: E. coli malate dehydrogenase mutant, SEQ ID No. 1114 as printed (protein, UniProt P61889 1-312, looked up, variant R81A D86S)
Malate dehydrogenase: B1 chain with R81A, D86S
B6: R81A 112V: E. coli malate dehydrogenase mutant, SEQ ID No. 115 as printed (protein, listed as Escherichia coli)
chain: B1 chain with I12V, R81A
B7: R81A M85E I12V: E. coli malate dehydrogenase mutant, SEQ ID No. 110 (protein, listed as Escherichia coli)
chain: B1 chain with I12V, R81A, M85E
B8: R81A M85E: E. coli malate dehydrogenase mutant, SEQ ID No. 106 (protein, listed as Escherichia coli)
chain: B1 chain with R81A, M85E
B9: R81A G179D D86S: E. coli malate dehydrogenase mutant, SEQ ID No. 118 (protein, listed as Escherichia coli)
chain: B1 chain with R81A, D86S, G179D
B10: R81A: E. coli malate dehydrogenase mutant R81A, SEQ ID No. 102 (protein, listed as Escherichia coli)
chain: MDHRAMKVAVLGAAGGIGQALALLLKTQLPSGSELSLYDIAPVTPGVAVDLSHIPTAVKIKGFSGEDATPALEGADVVLISAGVAAKPGMDRSDLFNVNAGIVKNLVQQVAKTCPKACIGIITNPVNTTVAIAAEVLKKAGVYDKNKLFGVTTLDIIRSNTFVAELKGKQPGEVEVPVIGGHSGVTILPLLSQVPGVSFTEQEVADLTKRIQNAGTEVVEAKAGGGSATLSMGQAAARFGLSLVRALQGEQGVVECAYVEGDGQYARFFSQPLLLGKNGVEERKSIGTLSAFEQNALEGMLDTLKKDIALGEEFVNK
B11: Gs-Ldh: (L)-lactate dehydrogenase of Geobacillus stearothermophilus, SEQ ID NO: 10 (protein, listed as Geobacillus sterarothermophillus)
chain: MKNNGGARVVVIGAGFVGASYVFALMNQGIADEIVLIDANESKAIGDAMDFNHGKVFAPKPVDIWHGDYDDCRDADLVVICAGANQKPGETRLDLVDKNIAIFRSIVESVMASGFQGLFLVATNPVDILTYATWKFSGLPHERVIGSGTILDTARFRFLLGEYFSVAPQNVHAYIIGEHGDTELPVWSQAYIGVMPIRKLVESKGEEAQKDLERIFVNVRDAAYQIIEKKGATYYGIAMGLARVTRAILHNENAILTVSAYLDGLYGERDVYIGVPAVINRNGIREVIEIELNDDEKNRFHHSAATLKSVLARAFTR
B12: Ll-Ldh: (L)-lactate dehydrogenase of Lactococcus lactis, SEQ ID NO: 6 (protein, listed as Lactococcus lactis)
chain: MADKQRKKVILVGDGAVGSSYAFALVNQGIAQELGIVDLFKEKTQGDAEDLSHALAFTSPKKIYSADYSDASDADLVVLTSGAPQKPGETRLDLVEKNLRITKDVVTKIVASGFKGIFLVAANPVDILTYATWKFSGFPKNRVVGSGTSLDTARFRQALAEKVDVDARSIHAYIMGEHGDSEFAVWSHANVAGVKLEQWFQENDYLNEAEIVELFESVRDAAYSIIAKKGATFYGVAVALARITKAILDDEHAVLPVSVFQDGQYGVSDCYLGQPAVVGAEGVVNPIHIPLNDAEMQKMEASGAQLKAIIDEAFAKEEFASAVKN
B13: Ec-LdhA: (D)-lactate dehydrogenase from Escherichia coli, SEQ ID NO: 4 (protein, listed as Escherichia coli)
chain: MKLAVYSTKQYDKKYLQQVNESFGFELEFFDFLLTEKTAKTANGCEAVCIFVNDDGSRPVLEELKKHGVKYIALRCAGFNNVDLDAAKELGLKVVRVPAYDPEAVAEHAIGMMMTLNRRIHRAYQRTRDANFSLEGLTGFTMYGKTAGVIGTGKIGVAMLRILKGFGMRLLAFDPYPSAAALELGVEYVDLPTLFSESDVISLHCPLTPENYHLLNEAAFEQMKNGVMIVNTSRGALIDSQAAIEALKNQKIGSLGMDVYENERDLFFEDKSNDVIQDDVFRRLSACHNVLFTGHQAFLTAEALTSISQTTLQNLSNLEKGETCPNELV
B14: Bs-Ldh: (L)-lactate dehydrogenase of Bacillus subtilis, SEQ ID NO: 8 (protein, listed as Bacillus subtilis)
chain: MMNKHVNKVALIGAGFVGSSYAFALINQGITDELVVIDVNKEKAMGDVMDLNHGKAFAPQPVKTSYGTYEDCKDADIVCICAGANQKPGETRLELVEKNLKIFKGIVSEVMASGFDGIFLVATNPVDILTYATWKFSGLPKERVIGSGTTLDSARFRFMLSEYFGAAPQNVHAHIIGEHGDTELPVWSHANVGGVPVSELVEKNDAYKQEELDQIVDDVKNAAYHIIEKKGATYYGVAMSLARITKAILHNENSILTVSTYLDGQYGADDVYIGVPAVVNRGGIAGITELNLNEKEKEQFLHSAGVLKNILKPHFAEQKVN

Where a chain is given by its changes, count along the chain named. Numbers in names are those of the source.

The first series in a line: OHB reductase activity, NADH absorption at 340 nm. The format is biochemical.
Conditions: not given
How it is done:
(§1) Enzymatic assays: The reaction mixture contained 60 mM Hepes (pH 7), 50 mM potassium chloride, 5 mM MgCl2, 0.25 mM NADH, (optionally 5 mM fructose-1,6-bisphosphate) (all products from Sigma), and appropriate amounts of purified malate or lactate dehydrogenase or cell extract. Reactions were started by adding appropriate amounts of 2-oxo-4-hydroxybutyrate (OHB), pyruvate, or oxaloacetate (OAA). Enzymatic assays were carried out at 37° C. in 96-well flat bottomed microtiter plates in a final volume of 250 μL. The reactions were followed by the characteristic absorption of NADH at 340 nm (εNADH=6.22 mM^−1 cm^−1) in a microplate reader (BioRad 680XR).
OHB was synthesized by incubating 125 mM homoserine with snake venom (L)-amino acid oxidase (1.25 U/mL, Sigma) and catalase (4400 U/mL, Sigma) in 100 mM Tris buffer at pH 7.8 for 90 min at 37° C. Subsequently, the reaction mixture was purified on an Amicon™ Ultra centrifugal filter with a cut-off of 10 kDa to eliminate the enzymes (method adapted from Wellner & Lichtenberg, 1971).
OHB was quantified by mixing 100 μL of the tested solution with 1 mL of a solution containing 1 M sodium arsenate and 1 M boric acid at pH 6.5. The mixture was incubated at room temperature for 30 min and the absorbance at 325 nm was used to quantify OHB. The relation between absorbance and concentration of the ketone was calibrated using pyruvate solutions of known concentrations (method adapted from (Wellner & Lichtenberg, 1971)). The typical OHB yield of the method was 90%.
Take B1: the “OHB reductase activity, in words” value is “very minor activity”.

The series is the same for the next values; noted with them: E. coli Mdh mutants; measured at 20 mM OHB.
Regarding B1, the “Max. specific activity, OHB” value was found to be 0.01 µmol/mg/min.

As to B2, the “Max. specific activity, OHB” value is 4.99 µmol/mg/min.

As to B3, the “Max. specific activity, OHB” value is 18.9 µmol/mg/min.

With B4, the “Max. specific activity, OHB” value was determined as 4.16 µmol/mg/min.

For B5, the “Max. specific activity, OHB” value is 14.6 µmol/mg/min.

In the case of B6, the “Max. specific activity, OHB” value came to 4.9 µmol/mg/min.

With B7, the “Max. specific activity, OHB” value stood at 12.54 µmol/mg/min.

Turning to B8, the “Max. specific activity, OHB” value is 3 µmol/mg/min.

On to B9, for which the “Max. specific activity, OHB” value came out at 19 µmol/mg/min.

For B10, the “Max. specific activity, OHB” value came to 1.8 µmol/mg/min.

The series is the same for the next values; noted with them: E. coli Mdh mutants; ns = not saturated up to 50 mM OHB.
Turning to B9, the “Km, OHB” value is “ns”.

Staying with this series, now noted: when not saturated, activity estimated at 20 mM substrate.
On to B11, for which the “Max. specific activity, OHB” value is 66.8 µmol/mg/min.

In the case of B12, the “Max. specific activity, OHB” value is 18 µmol/mg/min.

In the case of B13, the “Max. specific activity, OHB” value was 0.56 µmol/mg/min.

Take B1: the “Max. specific activity, OHB” value is 0.01 µmol/mg/min.

For B14, the “Max. specific activity, OHB” value is 15.7 µmol/mg/min.

The nature of a further series: pyruvate reductase activity, NADH absorption at 340 nm. The format is biochemical. The conditions noted are these: natural substrate of Ldh: pyruvate; purified enzyme, 37° C., pH 7. The method, then:
as §1
For the molecule B11, the “Max. specific activity, natural substrate” value stood at 87.7 µmol/mg/min.

For the molecule B12, the “Max. specific activity, natural substrate” value was 184 µmol/mg/min.

For the molecule B13, the “Max. specific activity, natural substrate” value came out at 265 µmol/mg/min.

Regarding B14, the “Max. specific activity, natural substrate” value was 170 µmol/mg/min.

Another series is described as follows: oxaloacetate reductase activity, NADH absorption at 340 nm. In kind it is biochemical. Particulars: E. coli Mdh mutants; measured at 0.5 mM oxaloacetate. How it is done: as §1
Turning to B1, the “Max. specific activity, OAA” value stood at 95 µmol/mg/min.

As to B2, the “Max. specific activity, OAA” value came out at 0.5 µmol/mg/min.

For B3, the “Max. specific activity, OAA” value came to 1.84 µmol/mg/min.

Take B4: the “Max. specific activity, OAA” value came out at 0.37 µmol/mg/min.

For B5, the “Max. specific activity, OAA” value was 0.67 µmol/mg/min.

Take B6: the “Max. specific activity, OAA” value was found to be 0.5 µmol/mg/min.

In the case of B7, the “Max. specific activity, OAA” value was 2.2 µmol/mg/min.

For the molecule B8, the “Max. specific activity, OAA” value turned out to be 1 µmol/mg/min.

In the case of B9, the “Max. specific activity, OAA” value stood at 0.54 µmol/mg/min.

Regarding B10, the “Max. specific activity, OAA” value was determined as 1.16 µmol/mg/min.

Still in this series, the particulars now being: E. coli Mdh mutants; ns = not saturated up to 0.5 mM oxaloacetate.
Consider B9, for which the “Km, OAA” value is “ns”.

Still in this series, the particulars now being: natural substrate of Mdh: oxaloacetate; purified enzyme, 37° C., pH 7.
For the molecule B1, the “Max. specific activity, natural substrate” value amounted to 95.6 µmol/mg/min.
